Measurements as given in US20090215081.

Molecular target: T1, FLAG-TCF4, full length human TCF4 expressed from pFLAG-CMV-4, Q9NQB0
T1 chain: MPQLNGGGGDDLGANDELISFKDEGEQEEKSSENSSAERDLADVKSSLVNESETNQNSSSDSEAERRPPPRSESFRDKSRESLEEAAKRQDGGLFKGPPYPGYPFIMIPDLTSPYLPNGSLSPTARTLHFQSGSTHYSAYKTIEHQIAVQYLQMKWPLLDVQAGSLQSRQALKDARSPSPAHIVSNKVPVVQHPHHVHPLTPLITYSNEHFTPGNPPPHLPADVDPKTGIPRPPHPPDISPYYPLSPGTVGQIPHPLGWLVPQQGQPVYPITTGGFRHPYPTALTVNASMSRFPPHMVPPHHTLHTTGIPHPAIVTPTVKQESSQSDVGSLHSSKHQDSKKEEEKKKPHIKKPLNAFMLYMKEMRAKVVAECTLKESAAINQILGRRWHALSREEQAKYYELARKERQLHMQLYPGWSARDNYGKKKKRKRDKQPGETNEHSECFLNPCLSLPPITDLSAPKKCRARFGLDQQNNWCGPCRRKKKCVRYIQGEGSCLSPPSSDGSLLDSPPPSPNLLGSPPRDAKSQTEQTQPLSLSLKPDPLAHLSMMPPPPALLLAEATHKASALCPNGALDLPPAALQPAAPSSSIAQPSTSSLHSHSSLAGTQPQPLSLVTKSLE

B1: HA-TNIK, wild-type human TNIK full length expressed from pCIneo-HA-TNIK (protein)
chain: MASDSPARSLDEIDLSALRDPAGIFELVELVGNGTYGQVYKGRHVKTGQLAAIKVMDVTGDEEEEIKQEINMLKKYSHHRNIATYYGAFIKKNPPGMDDQLWLVMEFCGAGSVTDLIKNTKGNTLKEEWIAYICREILRGLSHLHQHKVIHRDIKGQNVLLTENAEVKLVDFGVSAQLDRTVGRRNTFIGTPYWMAPEVIACDENPDATYDFKSDLWSLGITAIEMAEGAPPLCDMHPMRALFLIPRNPAPRLKSKKWSKKFQSFIESCLVKNHSQRPATEQLMKHPFIRDQPNERQVRIQLKDHIDRTKKKRGEKDETEYEYSGSEEEEEENDSGEPSSILNLPGESTLRRDFLRLQLANKERSEALRRQQLEQQQRENEEHKRQLLAERQKRIEEQKEQRRRLEEQQRREKELRKQQEREQRRHYEEQMRREEERRRAEHEQEYIRRQLEEEQRQLEILQQQLLHEQALLLEYKRKQLEEQRQAERLQRQLKQERDYLVSLQHQRQEQRPVEKKPLYHYKEGMSPSEKPAWAKEVEERSRLNRQSSPAMPHKVANRISDPNLPPRSESFSISGVQPARTPPMLRPVDPQIPHLVAVKSQGPALTASQSVHEQPTKGLSGFQEALNVTSHRVEMPRQNSDPTSENPPLPTRIEKFDRSSWLRQEEDIPPKVPQRTTSISPALARKNSPGNGSALGPRLGSQPIRASNPDLRRTEPILESPLQRTSSGSSSSSSTPSSQPSSQGGSQPGSQAGSSERTRVRANSKSEGSPVLPHEPAKVKPEESRDITRPSRPASYKKAIDEDLTALAKELRELRIEETNRPMKKVTDYSSSSEESESSEEEEEDGESETHDGTVAVSDIPRLIPTGAPGSNEQYNVGMVGTHGLETSHADSFSGSISREGTLMIRETSGEKKRSGHSDSNGFAGHINLPDLVQQSHSPAGTPTEGLGRVSTHSQEMDSGTEYGMGSSTKASFTPFVDPRVYQTSPTDEDEEDEESSAAALFTSELLRQEQAKLNEARKISVVNVNPTNIRPHSDTPEIRKYKKRFNSEILCAALWGVNLLVGTENGLMLLDRSGQGKVYNLINRRRFQQMDVLEGLNVLVTISGKKNKLRVYYLSWLRNRILHNDPEVEKKQGWITVGDLEGCIHYKVVKYERIKFLVIALKNAVEIYAWAPKPYHKFMAFKSFADLQHKPLLVDLTVEEGQRLKVIFGSHTGFHVIDVDSGNSYDIYIPSHIQGNITPHAIVILPKTDGMEMLVCYEDEGVYVNTYGRITKDVVLQWGEMPTSVAYIHSNQIMGWGEKAIEIRSVETGHLDGVFMHKRAQRLKFLCERNDKVFFASVRSGGSSQVFFMTLNRNSMMNW
  serine phosphorylation of TCF4 (immunoprecipitation with anti-TCF4, immunoblot with anti-phospho-serine antibody): the serine phosphorylation band of TCF4 was detected
